Patent US20210238260A1 (published 2021)
Substitutions are numbered along the chain they refer to. In names and notes the source's numbering stands.

B1: FIXa-D104N/K106S/R318Y/R338E/E410N (enzyme)
chain 1: YNSGKLEEFVQGNLERECMEEKCSFEEAREVFENTERTTEFWKQYVDGDQCESNPCLNGGSCKDDINSYECWCPFGFEGKNCELDVTCNIKNGRCEQFCKNSANNSVVCSCTEGYRLAENQKSCEPAVPFPCGRVSVSQTSKLTR
chain 2: VVGGEDAKPGQFPWQVVLNGKVDAFCGGSIVNEKWIVTAAHCVETGVKITVVAGEHNIEETEHTEQKRNVIRIIPHHNYNAAINKYNHDIALLELDEPLVLNSYVTPICIADKEYTNIFLKFGSGYVSGWGRVFHKGYSALVLQYLRVPLVDRATCLESTKFTIYNNMFCAGFHEGGRDSCQGDSGGPHVTEVEGTSFLTGIISWGEECAMKGKYGIYTKVSRYVNWIKNKTKLT
notes: also called D104N/K106S/R318Y/E410N/R338E
B2: FIXa-R318Y/R403E/E410N (enzyme)
chain 1: B1 chain 1 with N104D, S106K
chain 2: B1 chain 2 with E158R, R223E
notes: also called R150Y/R233E/E240N (chymotrypsin numbering)
B3: FIXa-D203N/F205T/R318Y (enzyme)
chain 1: B1 chain 1 with N104D, S106K
chain 2: B1 chain 2 with D23N, F25T, E158R, N230E
notes: also called D39N/F41T/R150Y (chymotrypsin numbering)
B4: FIXa-D203N/F205T/K228N (enzyme)
chain 1: B1 chain 1 with N104D, S106K
chain 2: B1 chain 2 with D23N, F25T, K48N, Y138R, E158R, N230E
notes: also called D39N/F41T/K63N (chymotrypsin numbering)
B5: FIXa-K228N/R318Y/E410N (enzyme)
chain 1: B1 chain 1 with N104D, S106K
chain 2: B1 chain 2 with K48N, E158R
notes: also called K63N/R150Y/E240N (chymotrypsin numbering)
B6: FIXa-R338E/R403E/E410N (enzyme)
chain 1: B1 chain 1 with N104D, S106K
chain 2: B1 chain 2 with Y138R, R223E
notes: also called R170E/R233E/E240N (chymotrypsin numbering)
B7: FIXa-D203N/F205T/E410N (enzyme)
chain 1: B1 chain 1 with N104D, S106K
chain 2: B1 chain 2 with D23N, F25T, Y138R, E158R
notes: also called D39N/F41T/E240N (chymotrypsin numbering)
B8: FIXa-K228N/R338E/R403E (enzyme)
chain 1: B1 chain 1 with N104D, S106K
chain 2: B1 chain 2 with K48N, Y138R, R223E, N230E
notes: also called K63N/R170E/R233E (chymotrypsin numbering)
B9: FIXa-D203N/F205T/R338E/R403E (enzyme)
chain 1: B1 chain 1 with N104D, S106K
chain 2: B1 chain 2 with D23N, F25T, Y138R, R223E, N230E
notes: also called D39N/F41T/R170E/R233E (chymotrypsin numbering)
B10: FIXa-D203N/F205T/R338E (enzyme)
chain 1: B1 chain 1 with N104D, S106K
chain 2: B1 chain 2 with D23N, F25T, Y138R, N230E
notes: also called D39N/F41T/R170E (chymotrypsin numbering)
B11: FIXa-D203N/F205T/R338A (enzyme)
chain 1: B1 chain 1 with N104D, S106K
chain 2: B1 chain 2 with D23N, F25T, Y138R, E158A, N230E
notes: also called D39N/F41T/R170A (chymotrypsin numbering)
B12: FIXa-D104N/K106S/I251S/R318Y/R338E/E410N (enzyme)
chain 1: B1 chain 1
chain 2: B1 chain 2 with I71S
B13: FIXa-R318Y/R338E/E410S (enzyme)
chain 1: B1 chain 1 with N104D, S106K
chain 2: B1 chain 2 with N230S
notes: also called R150Y/R170E/E240S
B14: FIXa-I251S/R318Y/R338E/E410N (enzyme)
chain 1: B1 chain 1 with N104D, S106K
chain 2: B1 chain 2 with I71S
notes: also called I86S/R150Y/R170E/E240N; I251S/R318Y/E410N/R338E
B15: FIXa-D104N/K106S/Y155F/K228N/K247N/N249S (enzyme)
chain 1: B1 chain 1
chain 2: B1 chain 2 with K48N, K67N, N69S, Y138R, E158R, N230E
B16: FIXa-D104N/K106S/K228N/K247N/N249S (enzyme)
chain 1: B1 chain 1
chain 2: B1 chain 2 with K48N, K67N, N69S, Y138R, E158R, N230E
B17: FIXa-Y155F/K247N/N249S/R318Y/R338E/E410N (enzyme)
chain 1: B1 chain 1 with N104D, S106K
chain 2: B1 chain 2 with K67N, N69S
B18: FIXa-Y259F/K265T/Y345T (enzyme)
chain 1: B1 chain 1 with N104D, S106K
chain 2: B1 chain 2 with Y79F, K85T, Y138R, E158R, Y165T, N230E
notes: also called Y94F/K98T/Y177T
B19: FIXa-Y155F/N260S/R318Y/R338E/R403E/E410N (enzyme)
chain 1: B1 chain 1 with N104D, S106K
chain 2: B1 chain 2 with N80S, R223E
B20: FIXa-R318Y/R338E/E410N/T412V (enzyme)
chain 1: B1 chain 1 with N104D, S106K
chain 2: B1 chain 2 with T232V
notes: also called R150Y/R170E/E240N/T242V
B21: FIXa-K247N/N249S/R318Y/R338E/E410N (enzyme)
chain 1: B1 chain 1 with N104D, S106K
chain 2: B1 chain 2 with K67N, N69S
notes: also called K82N/N84S/R150Y/R170E/E240N
B22: FIXa-R318Y/R338E/T412A (enzyme)
chain 1: B1 chain 1 with N104D, S106K
chain 2: B1 chain 2 with N230E, T232A
notes: also called R150Y/R170E/T242A
B23: FIXa-K247N/N249S/R318Y/R338E/R403E/E410N (enzyme)
chain 1: B1 chain 1 with N104D, S106K
chain 2: B1 chain 2 with K67N, N69S, R223E
notes: also called K82N/N84S/R150Y/R170E/R233E/E240N

The binders below were run against T1, antithrombin III (plasma purified human AT-III), used as the AT-III/unfractionated heparin complex (human, UniProt P01008 33-464) (assay: K0.5: AT-III/UFH titrated against FIXa, 10 s, residual cleavage of Mesyl-D-CHG-Gly-Arg-AMC).
T1 construct: also called AT-III/UFH

Row | Binder | IC50 [µM]
1 | B1 | 6.33
2 | B2 | 7.07
3 | B3 | 7.23
4 | B4 | 0.822
5 | B5 | 0.475
6 | B6 | 2.35
7 | B7 | 0.377
8 | B8 | 1.68
9 | B9 | 1.52
10 | B10 | 1.17
11 | B11 | 0.423

The binders below were run against T2, plasma purified human AT-III (antithrombin III) (human, UniProt P01008 33-464) (assay: K0.5: AT-III/UFH titrated on FIXa, residual activity on fluorogenic substrate).
T2 construct: also called AT-III/UFH (in complex with unfractionated heparin)

Row | Binder | IC50 [µM]
12 | B12 | 8.98
13 | B13 | 5.4
14 | B14 | 5.86
15 | B15 | 0.032
16 | B16 | 0.041
17 | B17 | 3.88
18 | B18 | 0.006
19 | B19 | 9.7
20 | B20 | 4.87
21 | B21 | 1.51
22 | B22 | 7.66
23 | B23 | 8.08
